In article PMC11109279, “Heliorhodopsin-mediated light-modulation of ABC transporter” (Nature Communications, 2024):

Columns and labels:
[1] = molecular target: T1, heterodimeric multidrug resistance ABC transporter OmrDE (Omithinimicrobium cerasi strain USBA17B2, UniProt A0A285VW85 1-577; A0A285VWG3 1-661); test: ITC; replicate #2
T1 chain 1: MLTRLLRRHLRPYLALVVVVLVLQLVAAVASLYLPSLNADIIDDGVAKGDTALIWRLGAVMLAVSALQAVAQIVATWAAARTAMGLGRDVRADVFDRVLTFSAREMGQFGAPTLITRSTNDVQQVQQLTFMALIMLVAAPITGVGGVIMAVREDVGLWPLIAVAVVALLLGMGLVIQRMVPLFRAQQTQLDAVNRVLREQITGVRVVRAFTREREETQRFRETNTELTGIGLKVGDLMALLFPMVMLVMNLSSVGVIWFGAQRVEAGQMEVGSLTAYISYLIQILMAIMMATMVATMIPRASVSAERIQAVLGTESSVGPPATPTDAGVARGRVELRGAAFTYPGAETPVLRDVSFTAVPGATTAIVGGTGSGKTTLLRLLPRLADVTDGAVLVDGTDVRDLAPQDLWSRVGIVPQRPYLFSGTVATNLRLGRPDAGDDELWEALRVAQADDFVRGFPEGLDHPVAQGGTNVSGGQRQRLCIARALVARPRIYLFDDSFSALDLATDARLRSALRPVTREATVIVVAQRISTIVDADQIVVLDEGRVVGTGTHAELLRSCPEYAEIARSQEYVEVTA
T1 chain 2: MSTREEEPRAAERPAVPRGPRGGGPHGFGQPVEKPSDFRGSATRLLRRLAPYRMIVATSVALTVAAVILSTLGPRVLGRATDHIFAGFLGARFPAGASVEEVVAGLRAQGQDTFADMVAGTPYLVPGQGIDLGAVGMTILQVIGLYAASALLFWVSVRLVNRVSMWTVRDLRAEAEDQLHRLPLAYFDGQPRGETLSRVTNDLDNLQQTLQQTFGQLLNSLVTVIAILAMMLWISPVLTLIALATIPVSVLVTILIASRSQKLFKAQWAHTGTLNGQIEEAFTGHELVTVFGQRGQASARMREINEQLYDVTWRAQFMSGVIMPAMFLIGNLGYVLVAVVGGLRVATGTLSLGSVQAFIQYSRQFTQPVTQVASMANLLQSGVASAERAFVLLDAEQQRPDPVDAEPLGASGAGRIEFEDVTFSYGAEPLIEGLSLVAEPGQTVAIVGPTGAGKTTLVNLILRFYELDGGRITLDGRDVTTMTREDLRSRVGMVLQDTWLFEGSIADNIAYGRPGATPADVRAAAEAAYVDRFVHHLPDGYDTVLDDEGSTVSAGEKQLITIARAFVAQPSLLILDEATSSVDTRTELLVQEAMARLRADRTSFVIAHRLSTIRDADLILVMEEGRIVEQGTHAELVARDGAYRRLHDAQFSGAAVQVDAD

[2] = molecular target: T1, heterodimeric multidrug resistance ABC …; test: ITC; replicate #4
[3] = molecular target: T2, NBD-truncated OmrDE (OmrD^tcE^tc) (Omithinimicrobium cerasi strain USBA17B2); test: ITC; OcHeR injected into the Omr protein; 25 °C, 500 rpm; buffer SD; MicroCal ITC200; one site binding model (sequential binding site model for R233Q); perfect saturation was not achieved; details: both partners purified
T2 chain 1: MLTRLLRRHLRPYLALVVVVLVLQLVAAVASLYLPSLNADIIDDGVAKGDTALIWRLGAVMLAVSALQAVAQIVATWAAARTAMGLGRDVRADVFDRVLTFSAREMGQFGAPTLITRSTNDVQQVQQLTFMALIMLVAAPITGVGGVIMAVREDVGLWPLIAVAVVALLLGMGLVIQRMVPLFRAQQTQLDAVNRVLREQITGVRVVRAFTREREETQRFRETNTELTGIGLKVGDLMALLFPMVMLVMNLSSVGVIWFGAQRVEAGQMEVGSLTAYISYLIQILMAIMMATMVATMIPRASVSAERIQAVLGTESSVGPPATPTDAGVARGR
T2 chain 2: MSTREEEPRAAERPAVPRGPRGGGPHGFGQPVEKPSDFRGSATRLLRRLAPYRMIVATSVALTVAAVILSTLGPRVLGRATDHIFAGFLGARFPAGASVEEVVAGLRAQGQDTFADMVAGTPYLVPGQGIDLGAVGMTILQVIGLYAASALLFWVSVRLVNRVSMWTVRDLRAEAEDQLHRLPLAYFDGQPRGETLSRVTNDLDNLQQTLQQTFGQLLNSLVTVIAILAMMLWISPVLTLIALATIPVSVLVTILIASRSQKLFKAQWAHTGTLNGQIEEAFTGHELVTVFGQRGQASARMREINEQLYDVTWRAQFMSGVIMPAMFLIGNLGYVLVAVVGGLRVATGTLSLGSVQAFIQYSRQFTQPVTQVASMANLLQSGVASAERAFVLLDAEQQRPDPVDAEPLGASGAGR

[4] = molecular target: T3, heterodimeric multidrug resistance ABC transporter OmrDE (Omithinimicrobium cerasi strain USBA17B2, UniProt A0A285VW85 1-577; A0A285VWG3 1-661); test: as above; details: both partners purified
T3 construct: gene codon-optimized and synthesized; also called OmrDE heterodimer; source: E. coli C43 (DE3), OmrD and OmrE co-expressed, purified (DDM-solubilized membrane fraction, Ni2+-NTA agarose)
T3 sequence (looked up) 1: T1 chain 1
T3 sequence (looked up) 2: T1 chain 2

[5] = molecular target: T4, OmrD (OmrD::his-tag) (Omithinimicrobium cerasi strain USBA17B2, UniProt A0A285VW85 1-577); test: as above; details: both partners purified
T4 construct: OmrD-His calculated as 62.86 kDa; also called pET21b-OmrD; source: E. coli C43 (DE3); purified (Ni2+-NTA agarose) for ITC; in DDM-solubilized membrane proteins for the His-tag pull-down
T4 sequence (looked up): T1 chain 1

[6] = molecular target: T5, OmrE (OmrE-His) (Omithinimicrobium cerasi strain USBA17B2, UniProt A0A285VWG3 1-661); test: as above; details: both partners purified
T5 construct: OmrE-His calculated as 72.09 kDa; source: E. coli C43 (DE3), purified (DDM-solubilized membrane fraction, Ni2+-NTA agarose)
T5 sequence (looked up): T1 chain 2

B1: Omithinimicrobium cerasi strain USBA17B2 heliorhodopsin (OcHeR) WT (natural protein, UniProt A0A285W045 1-266, looked up)
chain: MGSTGTGSTASTTRADESRYAGLRRYNVVAAVVHAAQAVAVVVLATDFTLPMTASYLAGPPGSPPGEAVTLWDVPIPLAIATFLALSALFHVIVASPPFFDRYRRGLAQGHNYFRWVEYSLSSSLMIVIIAQLVGISDVVALLGLFGVNASMILFGWLQEKYHQPGDGGWLPFVFGCLAGAVPWVGIVLYTIAPGSTSGAEPPGFVYGIIVSLFLFFNVFALVQWLQYRPVGRFRDYLLGERLYITLSLVAKSALAWQIFGGTLAT
modifications: retinal Schiff base linked to K252
notes: gene codon-optimized for E. coli and chemically synthesized; source: E. coli C43 (DE3), purified (DDM-solubilized membrane fraction, Ni2+-NTA agarose)
Kd [1]: 122 µM | Kd [2]: 62 µM | dH [3]: -149 kJ/mol | Kd [4]: 91.6 µM | dH [4]: 205 kJ/mol | Kd [5]: 123 µM | Kd [6]: 35.3 µM | dH [6]: 149 kJ/mol
